Test results from patent US20200317768A1 (published 2020).

T1: cynomolgus monkey FcγRIIa1 extracellular domain, C-terminal His-tag (cynomolgus monkey)
T1 construct: also called cyno FcγRIIa1; cynoFcgRIIa1
T1 chain: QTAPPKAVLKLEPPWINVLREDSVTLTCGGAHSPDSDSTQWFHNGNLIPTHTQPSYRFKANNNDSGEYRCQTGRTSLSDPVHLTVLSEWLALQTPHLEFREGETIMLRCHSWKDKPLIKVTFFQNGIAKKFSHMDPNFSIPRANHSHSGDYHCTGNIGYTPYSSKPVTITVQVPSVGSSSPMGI

T2: cynomolgus monkey FcγRIIa2 extracellular domain, C-terminal His-tag (cynomolgus monkey)
T2 construct: also called cyno FcγRIIa2; cynoFcgRIIa2
T2 chain: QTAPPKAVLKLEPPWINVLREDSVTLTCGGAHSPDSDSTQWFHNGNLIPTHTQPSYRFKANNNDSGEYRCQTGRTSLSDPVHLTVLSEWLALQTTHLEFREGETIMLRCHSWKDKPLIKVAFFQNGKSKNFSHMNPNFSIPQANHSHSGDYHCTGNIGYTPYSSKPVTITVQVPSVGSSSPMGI

T3: cynomolgus monkey FcγRIIa3 extracellular domain, C-terminal His-tag (cynomolgus monkey)
T3 construct: also called cyno FcγRIIa3; cynoFcgRIIa3
T3 chain: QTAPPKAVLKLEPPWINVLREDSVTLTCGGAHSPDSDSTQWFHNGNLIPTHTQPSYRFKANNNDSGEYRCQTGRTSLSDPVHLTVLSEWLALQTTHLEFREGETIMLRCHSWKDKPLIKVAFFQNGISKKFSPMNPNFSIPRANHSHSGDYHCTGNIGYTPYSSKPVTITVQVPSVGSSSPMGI

T4: cynomolgus monkey FcγRIIb extracellular domain, C-terminal His-tag (cynomolgus monkey)
T4 construct: also called cyno FcγRIIb; cynoFcγRIIb
T4 chain: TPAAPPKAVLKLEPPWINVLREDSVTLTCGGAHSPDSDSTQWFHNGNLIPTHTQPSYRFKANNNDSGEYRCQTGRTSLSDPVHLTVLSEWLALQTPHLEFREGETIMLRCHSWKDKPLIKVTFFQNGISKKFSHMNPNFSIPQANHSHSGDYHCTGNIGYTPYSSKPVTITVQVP

T5: human FcγRIIaH extracellular domain, C-terminal His-tag (human, UniProt P12318 34-217)
T5 construct: also called human FcγRIIa (type H); FcgRIIaH
T5 sequence: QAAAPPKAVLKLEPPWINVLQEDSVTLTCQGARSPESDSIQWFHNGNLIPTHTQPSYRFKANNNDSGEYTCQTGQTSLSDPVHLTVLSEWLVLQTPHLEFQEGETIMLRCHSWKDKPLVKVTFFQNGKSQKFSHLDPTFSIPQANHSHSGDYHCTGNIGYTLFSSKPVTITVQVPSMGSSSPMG

T6: human FcγRIIaR extracellular domain, C-terminal His-tag (human, UniProt P12318 34-217)
T6 construct: also called human FcγRIIa (type R); FcgRIIaR
T6 chain: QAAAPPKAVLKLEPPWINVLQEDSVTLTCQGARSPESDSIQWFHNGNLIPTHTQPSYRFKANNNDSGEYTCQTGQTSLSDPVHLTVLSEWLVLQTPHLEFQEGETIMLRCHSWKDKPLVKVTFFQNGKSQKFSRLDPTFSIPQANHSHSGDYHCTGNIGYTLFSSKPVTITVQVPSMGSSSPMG

T7: human FcγRIIb extracellular domain, C-terminal His-tag (human, UniProt P31994 43-217)
T7 construct: also called human FcgRIIb; FcgRIIb
T7 sequence: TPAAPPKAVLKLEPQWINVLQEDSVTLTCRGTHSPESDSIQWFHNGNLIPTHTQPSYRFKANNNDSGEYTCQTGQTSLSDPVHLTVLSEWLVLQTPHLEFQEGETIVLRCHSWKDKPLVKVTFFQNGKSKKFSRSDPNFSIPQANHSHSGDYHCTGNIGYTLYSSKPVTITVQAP


Experiments:
Experiment in all cases: SPR (Biacore); KD of SG1 / KD of variant;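 further: relative to parent M103205H795-SG1 carrying the SG1 human heavy chain constant region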
[1] = target: T1, cynomolgus monkey FcγRIIa1 …
Procedure: (§1) The kinetic analysis of interactions between these antibodies and FcγR was carried out using BIACORE® T200 or BIACORE® 4000 (GE Healthcare). HBS-EP+ (GE Healthcare) was used as the running buffer, and the measurement temperature was set to 25° C. A chip produced by immobilizing Protein A. Protein A/G or mouse anti-human IgG kappa light chain (BD Biosciences) onto a Series S Sensor Chip CM4 or CM5 (GE Healthcare) by the amine-coupling method was used. […] After the measurement, the antibody captured on the chip was washed off by allowing reaction with 10 mM glycine-HCl, pH1.5 and 25 mM NaOH so that the chip was regenerated and used repeatedly. The sensorgrams obtained as measurement results were analyzed by the 1:1 Langmuir binding model using the BIACORE® Evaluation Software to calculate the binding rate constant ka (L/mol/s) and dissociation rate constant kd (l/s), and the dissociation constant KD (mol/L) was calculated from these values. […] Regarding such interactions, KD values were calculated using the following 1:1 binding model described in BIACORE® T100 Software Handbook BR1006-48 Edition AE.
(§2) The behavior of interacting molecules according to the 1:1 binding model on BIACORE® can be described by Equation 1: Req=C·R max/(KD+C)+RI, wherein, Req is a plot of steady-state binding levels to analyte concentration. C is concentration, RI is bulk refractive index contribution in the sample, and Rmax is analyte binding capacity of the surface. When this equation is rearranged, KD can be expressed as Equation 2: KD=C·Rmax/(Req−RI)−C. KD can be calculated by substituting the values of Rmax, RI, and C into Equation 1 or Equation 2. From the current measurement conditions, RI=0, C=2 μmol/L can be used.

[2] = target: T2, cynomolgus monkey FcγRIIa2 …
Procedure: as §1, §2

[3] = target: T3, cynomolgus monkey FcγRIIa3 …
Procedure: as §1, §2

[4] = target: T4, cynomolgus monkey FcγRIIb extracellular …
Procedure: as §1, §2

[5] = target: T5, human FcγRIIaH extracellular domain, …
Procedure: as §1, §2

[6] = target: T6, human FcγRIIaR extracellular domain, …
Procedure: as §1, §2

[7] = target: T7, human FcγRIIb extracellular domain, …
Procedure: as §1, §2

| Binder | KD fold (SG1 = 1) [1] [fold] | KD fold (SG1 = 1) [2] [fold] | KD fold (SG1 = 1) [3] [fold] | KD fold (SG1 = 1) [4] [fold] | KD fold (SG1 = 1) [5] [fold] | KD fold (SG1 = 1) [6] [fold] | KD fold (SG1 = 1) [7] [fold] |
| --- | --- | --- | --- | --- | --- | --- | --- |
| MS_M103205H795-SG1/M103202L889-SK1 (antibody, human IgG1, kappa, Parent of the Fc variants; also called MS1032LO06-SG1) heavy: not shown light: DIVMTQSPATLSLSPGERATLSCTSSQSVYHANWLSWFQQKPGQPPKLLIYWASTLAYGVPSRFSGSGSGTDFTLTISSLQPEDAATYYCAGGYGGGRYAFGQGTKVEIKRTVAAPSVFIFPPSDEQLKSGTASVVCLLNNFYPREAKVQWKVDNALQSGNSQESVTEQDSKDSTYSLSSTLTLSKADYEKHKVYACEVTHQGLSSPVTKSFNRGEC | 1 | 1 | 1 | 1 | 1 | 1 | 1 |
| M103205H795-MY047/M103202L889-SK1 (antibody, human IgG1, kappa, Substitutions introduced into M103205H795-SG1; expressed with M103202L889-SK1 as light chain) heavy: not shown light: DIVMTQSPATLSLSPGERATLSCTSSQSVYHANWLSWFQQKPGQPPKLLIYWASTLAYGVPSRFSGSGSGTDFTLTISSLQPEDAATYYCAGGYGGGRYAFGQGTKVEIKRTVAAPSVFIFPPSDEQLKSGTASVVCLLNNFYPREAKVQWKVDNALQSGNSQESVTEQDSKDSTYSLSSTLTLSKADYEKHKVYACEVTHQGLSSPVTKSFNRGEC | 0.7 | 1.5 | 0.7 | 0.7 | 0.2 | 0.5 | 1.2 |
| M103205H795-MY050/M103202L889-SK1 (antibody, human IgG1, kappa, Substitutions introduced into M103205H795-SG1; expressed with M103202L889-SK1 as light chain) heavy: QVTLKESGPVLVKPTETLTLTCTVSGIDLSHDDISWVRQAPGKGLEWVGIISYAGSTYYASWAKGRLTISKDTSKNQVVLTMTNMDPVDTATYYCARGVPAYSHGGDLWGQGTLVTVSSASTKGPSVFPLAPSSKSTSGGTAALGCLVKDYFPEPVTVSWNSGALTSGVHTFPAVLQSSGLYSLSSVVTVPSSSLGTQTYICNVNHKPSNTKVDKKVEPKSCDKTHTCPPCPAPELLNGPSVFLFPPKPKDTLMISRTPEVTCVVVDVAEEDPEVKFNWYVDGVEVHNAKTKPREEQYNSTYRVVSVLTVLHQDWLNGKEYKCKVSNKALPAPIEKTISKAKGQPREPQVYTLPPSREEMTKNQVSLTCLVKGFYPSDIAVEWESNGQPENNYKTTPPVLDSDGSFFLYSKLTVDKSRWQQGNVFSCSVMHEALHNHYTQKSLSLSP light: DIVMTQSPATLSLSPGERATLSCTSSQSVYHANWLSWFQQKPGQPPKLLIYWASTLAYGVPSRFSGSGSGTDFTLTISSLQPEDAATYYCAGGYGGGRYAFGQGTKVEIKRTVAAPSVFIFPPSDEQLKSGTASVVCLLNNFYPREAKVQWKVDNALQSGNSQESVTEQDSKDSTYSLSSTLTLSKADYEKHKVYACEVTHQGLSSPVTKSFNRGEC | 0.7 | 1.2 | 0.9 | 3.3 | 0.5 | 0.7 | 6.1 |
| M103205H795-MY001/M103202L889-SK1 (antibody, human IgG1, kappa, Substitutions introduced into M103205H795-SG1; expressed with M103202L889-SK1 as light chain) heavy: not shown light: DIVMTQSPATLSLSPGERATLSCTSSQSVYHANWLSWFQQKPGQPPKLLIYWASTLAYGVPSRFSGSGSGTDFTLTISSLQPEDAATYYCAGGYGGGRYAFGQGTKVEIKRTVAAPSVFIFPPSDEQLKSGTASVVCLLNNFYPREAKVQWKVDNALQSGNSQESVTEQDSKDSTYSLSSTLTLSKADYEKHKVYACEVTHQGLSSPVTKSFNRGEC | 1.1 | 1.4 | 1.1 | 1 | 0.2 | 0.1 | 0.6 |
| M103205H795-MY049/M103202L889-SK1 (antibody, human IgG1, kappa, Substitutions introduced into M103205H795-SG1; expressed with M103202L889-SK1 as light chain) heavy: not shown light: DIVMTQSPATLSLSPGERATLSCTSSQSVYHANWLSWFQQKPGQPPKLLIYWASTLAYGVPSRFSGSGSGTDFTLTISSLQPEDAATYYCAGGYGGGRYAFGQGTKVEIKRTVAAPSVFIFPPSDEQLKSGTASVVCLLNNFYPREAKVQWKVDNALQSGNSQESVTEQDSKDSTYSLSSTLTLSKADYEKHKVYACEVTHQGLSSPVTKSFNRGEC | 1.2 | 2.2 | 2.6 | 2.1 | 0.4 | 0.1 | 3.1 |

Next, values leading:

| KD fold (SG1 = 1) [1] [fold] | KD fold (SG1 = 1) [2] [fold] | KD fold (SG1 = 1) [3] [fold] | KD fold (SG1 = 1) [4] [fold] | KD fold (SG1 = 1) [5] [fold] | KD fold (SG1 = 1) [6] [fold] | KD fold (SG1 = 1) [7] [fold] | Binder |
| --- | --- | --- | --- | --- | --- | --- | --- |
| 0.7 | 1.1 | 0.9 | 0.9 | 0.3 | 0.4 | 2.3 | M103205H795-MY051/M103202L889-SK1 (antibody, human IgG1, kappa, Substitutions introduced into M103205H795-SG1; expressed with M103202L889-SK1 as light chain) heavy: QVTLKESGPVLVKPTETLTLTCTVSGIDLSHDDISWVRQAPGKGLEWVGIISYAGSTYYASWAKGRLTISKDTSKNQVVLTMTNMDPVDTATYYCARGVPAYSHGGDLWGQGTLVTVSSASTKGPSVFPLAPSSKSTSGGTAALGCLVKDYFPEPVTVSWNSGALTSGVHTFPAVLQSSGLYSLSSVVTVPSSSLGTQTYICNVNHKPSNTKVDKKVEPKSCDKTHTCPPCPAPELLNGPSVFLFPPKPKDTLMISRTPEVTCVVVDVSEEDGEVKFNWYVDGVEVHNAKTKPREEQYNSTYRVVSVLTVLHQDWLNGKEYKCKVSNKALPAPIEKTISKAKGQPREPQVYTLPPSREEMTKNQVSLTCLVKGFYPSDIAVEWESNGQPENNYKTTPPVLDSDGSFFLYSKLTVDKSRWQQGNVFSCSVMHEALHNHYTQKSLSLSP light: DIVMTQSPATLSLSPGERATLSCTSSQSVYHANWLSWFQQKPGQPPKLLIYWASTLAYGVPSRFSGSGSGTDFTLTISSLQPEDAATYYCAGGYGGGRYAFGQGTKVEIKRTVAAPSVFIFPPSDEQLKSGTASVVCLLNNFYPREAKVQWKVDNALQSGNSQESVTEQDSKDSTYSLSSTLTLSKADYEKHKVYACEVTHQGLSSPVTKSFNRGEC |
| 2.3 | 3 | 2.4 | 2 | 0.6 | 0.4 | 1.4 | M103205H795-MY048/M103202L889-SK1 (antibody, human IgG1, kappa, Substitutions introduced into M103205H795-SG1; expressed with M103202L889-SK1 as light chain) heavy: not shown light: DIVMTQSPATLSLSPGERATLSCTSSQSVYHANWLSWFQQKPGQPPKLLIYWASTLAYGVPSRFSGSGSGTDFTLTISSLQPEDAATYYCAGGYGGGRYAFGQGTKVEIKRTVAAPSVFIFPPSDEQLKSGTASVVCLLNNFYPREAKVQWKVDNALQSGNSQESVTEQDSKDSTYSLSSTLTLSKADYEKHKVYACEVTHQGLSSPVTKSFNRGEC |
